Reference: patent publication US7867500B2, “Cofactor that modulates steroid receptor activities” (The United States of America as represented by the …, priority 2004, dated 2011)

T1: PRs (B-form) (Homo sapiens, UniProt P06401)
T1 construct: expressed in transfected cells; host or cells: CV-1
T1 sequence (P06401 1-933): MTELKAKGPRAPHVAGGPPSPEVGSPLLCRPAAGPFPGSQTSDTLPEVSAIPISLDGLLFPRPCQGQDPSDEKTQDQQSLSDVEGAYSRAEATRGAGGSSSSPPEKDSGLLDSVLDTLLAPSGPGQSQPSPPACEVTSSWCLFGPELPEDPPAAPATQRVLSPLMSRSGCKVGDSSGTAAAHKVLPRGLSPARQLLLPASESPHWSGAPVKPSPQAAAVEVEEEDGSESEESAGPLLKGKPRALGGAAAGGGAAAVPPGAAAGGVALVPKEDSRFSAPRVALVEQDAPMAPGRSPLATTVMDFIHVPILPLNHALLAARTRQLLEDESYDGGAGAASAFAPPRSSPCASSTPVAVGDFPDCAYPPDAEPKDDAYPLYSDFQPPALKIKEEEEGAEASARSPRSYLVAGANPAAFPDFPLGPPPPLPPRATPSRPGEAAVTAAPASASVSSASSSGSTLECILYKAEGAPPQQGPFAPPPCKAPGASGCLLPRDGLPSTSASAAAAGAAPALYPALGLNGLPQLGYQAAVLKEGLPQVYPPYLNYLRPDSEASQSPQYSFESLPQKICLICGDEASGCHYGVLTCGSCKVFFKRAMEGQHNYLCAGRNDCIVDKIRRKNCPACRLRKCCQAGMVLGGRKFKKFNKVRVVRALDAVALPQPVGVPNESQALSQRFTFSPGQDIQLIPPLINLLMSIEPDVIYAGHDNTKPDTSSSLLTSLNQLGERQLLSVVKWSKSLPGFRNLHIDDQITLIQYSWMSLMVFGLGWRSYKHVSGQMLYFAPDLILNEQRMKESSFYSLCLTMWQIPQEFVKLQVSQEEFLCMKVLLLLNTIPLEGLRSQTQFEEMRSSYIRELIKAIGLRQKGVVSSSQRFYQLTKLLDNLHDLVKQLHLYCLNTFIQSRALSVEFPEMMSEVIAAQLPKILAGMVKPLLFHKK
T1 sequence (Q6EMB2 838-1281 F1267S partner limits assumed): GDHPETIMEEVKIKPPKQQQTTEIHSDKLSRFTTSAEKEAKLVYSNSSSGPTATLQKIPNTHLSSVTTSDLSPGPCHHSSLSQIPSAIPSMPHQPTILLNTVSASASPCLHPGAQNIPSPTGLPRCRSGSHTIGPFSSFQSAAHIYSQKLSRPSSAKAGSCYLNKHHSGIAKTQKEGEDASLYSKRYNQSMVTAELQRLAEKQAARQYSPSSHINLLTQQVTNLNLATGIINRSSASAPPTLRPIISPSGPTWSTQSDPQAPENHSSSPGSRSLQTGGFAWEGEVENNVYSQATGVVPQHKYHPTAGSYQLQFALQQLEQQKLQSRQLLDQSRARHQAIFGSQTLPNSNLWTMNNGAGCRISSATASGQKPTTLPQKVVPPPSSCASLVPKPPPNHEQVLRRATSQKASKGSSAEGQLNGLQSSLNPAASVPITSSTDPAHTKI


Columns and labels:
Format in all cases: cell-based
TIF2.4m123 = test: Mammalian two-hybrid assay in CV-1 cells with TIF2.4m123; details: equal amounts of protein
Excerpt: FIG. 2A-2C illustrate the isolation and characterization of the partial clone of the protein that binds to TIF2.4. […] Five clones were obtained but only two (clones I and V) contained a protein that was needed for colony growth in the presence of the pSos/TIF2.4 fusion protein. After initial screening, only clone I (also named 6-6CL1) was selected for further investigation. FIG. 2B and FIG. 2C illustrate the selectivity of 6-6CL1 interactions with TIF2.4 in mammalian two-hybrid assays. Triplicate samples of CV-1 cells in 24-well plates were transiently transfected with the indicated GAL-DBD and VP16-AD plasmids along with the GAL4-regulated reporter, pFRLuc. The relative luciferase activity, normalized for the activity of the internal Renilla control, was determined and plotted as the average±S.D. The much lower activity of GAL/TIF2.4m123 was previously shown not to be due to unequal levels of protein expression (He et al., 2002). Similar results were obtained in three additional experiments. […] Triplicate samples of CV-1 cells in 24-well plates were analyzed as in (B&C) after being transiently transfected with GAL±6-6CL1 constructs and pFRLuc reporter along with VP16 chimeras of SRC-1 (FIG. 2D) or TIF2 (FIG. 2E) segments. Similar results for SRC-1 were obtained in two additional experiments (ND=not determined). […]

PCAF = molecular target: T2, PCAF (Homo sapiens, UniProt Q92831); test: Mammalian two-hybrid assay with PCAF; details: data not shown
T2 construct: expressed in transfected cells; host or cells: CV-1 (the same two-hybrid assay)
T2 sequence (Q92831 whole entry, species assumed): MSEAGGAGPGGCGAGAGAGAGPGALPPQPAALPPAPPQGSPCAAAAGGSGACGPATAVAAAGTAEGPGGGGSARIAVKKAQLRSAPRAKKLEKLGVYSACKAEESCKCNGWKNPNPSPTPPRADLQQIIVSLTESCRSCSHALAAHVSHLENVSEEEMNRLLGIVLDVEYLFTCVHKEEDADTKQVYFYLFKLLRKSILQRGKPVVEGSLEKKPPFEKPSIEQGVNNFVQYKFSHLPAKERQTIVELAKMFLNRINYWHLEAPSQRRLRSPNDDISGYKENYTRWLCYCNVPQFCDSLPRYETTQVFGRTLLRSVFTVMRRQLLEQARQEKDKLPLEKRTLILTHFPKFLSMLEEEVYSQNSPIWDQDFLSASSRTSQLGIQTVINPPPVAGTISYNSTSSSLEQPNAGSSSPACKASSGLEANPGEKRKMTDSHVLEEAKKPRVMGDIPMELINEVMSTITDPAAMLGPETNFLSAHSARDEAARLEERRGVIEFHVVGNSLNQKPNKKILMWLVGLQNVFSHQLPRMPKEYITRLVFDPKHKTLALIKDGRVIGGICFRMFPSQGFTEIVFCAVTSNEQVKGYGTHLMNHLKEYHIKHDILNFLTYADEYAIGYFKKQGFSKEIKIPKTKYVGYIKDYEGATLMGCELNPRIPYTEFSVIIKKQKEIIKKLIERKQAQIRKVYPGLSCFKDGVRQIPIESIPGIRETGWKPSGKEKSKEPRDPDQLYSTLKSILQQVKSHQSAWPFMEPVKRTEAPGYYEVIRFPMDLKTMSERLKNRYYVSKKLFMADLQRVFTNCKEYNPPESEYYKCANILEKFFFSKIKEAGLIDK
Procedure: These assays were conducted as described (He et al., 2002). In particular, the recommended procedure for the Mammalian Matchmaker two-hybrid assay kit (Clontech) was modified slightly by changing from a chloramphenicol acetyltransferase reporter to a Luciferase Reporter pFRLuc (Stratagene), which is under the control of five repeats of the upstream activating sequence for the binding of GAL4.

PRs (B-form) = molecular target: T1, PRs (B-form); test: Mammalian two-hybrid assay with VP16 full length receptor: PR; details: 20 nM R5020
Procedure: FIG. 6C1-3 illustrate the association of STAMP with assorted steroid/nuclear receptors, including glucocorticoid receptors (GRs), progesterone receptors (PRs), androgen receptors (ARs), estrogen receptors (ER α or β), PPARγ2 receptors, thyroid receptor beta (TR), and retinoid (α) receptors (RAR α or RXR α). Triplicate samples of CV-1 cells were transfected (as described for FIG. 6B) with GAL, or GAL fused to TIF2.4 or STAMP834C, plus VP16 fused to the indicated full length receptors and incubated with the appropriate steroid (1 μM Dex, 20 nM R5020, 1 nM R1881, 0.1 μM triiodothyronine, or 1 μM estradiol, roziglitazone, or 9-cis-retinoic acid). The average relative luciferase activities of 2-3 experiments±S.E.M. were then plotted. FIG. 6C1 illustrates the effects of STAMP association upon GR, PR and AR induced expression. FIG. 6C2 illustrates the effects of STAMP association upon ERα, ERβ and PPARγ2 induced expression. FIG. 6C3 illustrates the effects of STAMP association upon TR, RARα and RXRα induced expression.
These assays were conducted as described (He et al., 2002). […]

| association with PCAF (PCAF) | interaction with agonist-bound, full length PR (PRs (B-form)) | Molecule | interaction with TIF2.4m123 (TIF2.4m123) |
| --- | --- | --- | --- |
| negligible association |  | 6-6CL1: STAMP fragment amino acids 623-834, coactivator interaction domain (CID) (protein) ENTPKENSMKVREWNNKGGHCCKLETQELEPKFNLMQILQDNGNLSKMQARIAFSAYLQHVQIRLMKDSGGQTFSASWAAKEDEQMELVVRFLKRASNNLQHSLRMVLPSRRLALLERRRILAHQLGDFIIVYNKETEQMAEKKSKKKVEEEEEDGVNMENFQEFIRQASEAELEEVLTFYTQKNKSASVFLGTHSKISKNNNNYSDSGAKG | did not interact |
|  | interacted | STAMP834C: STAMP fragment amino acids 834-1277, receptor interaction domain (RID) (protein) GDHPETIMEEVKIKPPKQQQTTEIHSDKLSRFTTSAEKEAKLVYSNSSSGPTATLQKIPNTHLSSVTTSDLSPGPCHHSSLSQIPSAIPSMPHQPTILLNTVSASASPCLHPGAQNIPSPTGLPRCRSGSHTIGPFSSFQSAAHIYSQKLSRPSSAKAGSCYLNKHHSGIAKTQKEGEDASLYSKRYNQSMVTAELQRLAEKQAARQYSPSSHINLLTQQVTNLNLATGIINRSSASAPPTLRPIISPSGPTWSTQSDPQAPENHSSSPGSRSLQTGGFAWEGEVENNVYSQATGVVPQHKYHPTAGSYQLQFALQQLEQQKLQSRQLLDQSRARHQAIFGSQTLPNSNLWTMNNGAGCRISSATASGQKPTTLPQKVVPPPSSCASLVPKPPPNHEQVLRRATSQKASKGSSAEGQLNGLQSSLNPAASVPITSSTDPAHTKI |  |
